Experimental data published in the domain aggregation screens of Martell et al. (2025).

Experiment: soluble fraction after stress (log2 fold change); higher = more stays soluble; pooled small domains, quantitative proteomics
Conditions: stress: 75 degC
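Note: 20 min heating vs room temperature control held 20 min.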

| Sequence | soluble fraction (log2) |
| --- | --- |
| HMRRKNQVQSSYQKRENGTYTVRFFLSDDMGSIMDLQLMATREDMARALRERFLKDPEKIYGQIMQMLLR | -1.23 |
| HMRRLGTTEIAGILRREISQGILIAKERLPSERSLADTYGVARGTVRQALNLLAREGLVQIRRSSGAYVTF | -0.458 |
| HMRRMAYLVGQRGLAMGDFISGTGQVRIGDTVWRAEAVEGELVRTGDTVVVEGAKMTTAIVRRVM | -1.81 |
| HMRRRKPLVSYEYGTRVYAPSEGEPRYRVVATDADGQRVFAKFSSEEAARHRAREIEGRLATS | -0.26 |
| HMRRSSQQLTLTEVSTIKEMVTSEEYRHVPTGTLALLAQRLRKVFASSSTWYRLVRIYKWRRPRGRIH | -0.329 |
| HMRRSVYQANVLDAIKHLVDQNELATTKAIAEYIGDDYQGNVSRAIRELLADRKIKKLPKVGVLQPYEA | -0.442 |
| HMRRVEDVRTALEHFAAARNTTPMAMTLDQRREAMRELAASGLLNLRRALSEVAQTLGVARSTVYTYLP | -1.39 |
| HMRSAKEYKAIREEIYRFIGAYITKHVYAPSNKEIAEAVGISGTTVHRHLIDMIDEGILETD | -2.65 |
| HMRSFGTLRRLPSGRYQASYAGPDLRRHAAPTTFETKLDAEGWLRDEHRMIERDEWTAPAARSQLK | -0.0721 |
| HMRSFRIGGLVEQGSIARDGQSLTVRFAVTDLAHKIPVTYTGLLPDLFKEGKGVVAEGKLGPDGVFHASQV | -0.0831 |
| HMRSPIWKSITATLTAEIAGGQYRAGDKLPTEAELSQRFGVNRHTLRRALAEMAGAGLVVARRGAGVFVQG | -2.5 |
| HMRSPLYVQIKQHILGDIRKGVWKPGEKLPTELDLAERFGVSVGTVRRAMGGLEDEGIISRREGSGTFVRT | -0.458 |
| HMRSSAATMFGRIALKNKLVDEATLKKVMSELPAGADLGAVLVKQGLISEQHAEAIQKKITAHMKSAP | -0.114 |
| HMRSSALDEIPGIGKQRKKNLLVHFTSVAKIKEASLDEIAAVPGMNRKAALVVVEFFQNQERE | -2.28 |
| HMRSSNEAVSQRRDKILDYISATGRTSTEIVAKEFGVSVMTARRDLLYLMEKRLISKSSSGLFKVDNN | -3.09 |
| HMRTIGDSVYEKIKYDIVHLTLKPGEKLSEASLAEKYGISKAPIRVALRKLQEEGLIVIRPQSGSIVSP | -1.19 |
| HMRTMRHLSVPRQETQQILSQLKAEFALPQGARVQPDPSDSKRTLIPVKEGAESELLSRYPVVHAEP | 0.0613 |
| HMRTNNEITSYKLKSGKKRWKFQTYLGLDDKGQKVSVTRQGFRTYNEAISEYNKLRAQGTQGYQ | -0.948 |
| HMRTPTGVQAYLSSGLIKGIGEKTAAAIVDKFGTDALSVIETDPERLLEIPGITPNKLREILESYNQH | 0.204 |
| HMRTVAERYGLTAGQWRVLELLTQGKTNRQIAEMLDVTEGTVKIHVSAIFKAMKVTNRTQALLLAKKH | -1.28 |
| HMRTYDPQAVELNNKALELINQGRLDSALLVYDQSIKTDKTYYFPHIGKSIIYMRKKDWNKAFEETQQAIK | 0.493 |
| HMRVDLATEVHSVLRRMMSRPPTLQEIRADLDGEEPGRVHEALDALRAAFRGGRGPKNPYESLKRSLRRG | -0.636 |
| HMRVDLVQRLARHGLSPRQSAVAGGVLRGLDNGEISRQLYIAEQTVKDHLHEIYHRLGVHTRTELLIKVLG | -2.22 |
| HMRVGISRNSGAAGIAVWLTQKLGRPVAKTEEIVHILKNWVDDQYEAGRVTNIGDGELWSVYKQMEAEE | -0.953 |
| HMRVTEIDYGAFMKMIEEKNIGEVKVEDYEIVFTDKDNKNIYKTGIMDDPDLTQRLYNSGAVFA | 0.0318 |
| HMRWGDPLTVKVPSFIGQTKDDIAKQHYPFRIEWHGEGAKIGSQLPEVDSVIKQDGTIHLYLV | -0.0635 |

| Sequence | soluble fraction (log2) |
| --- | --- |
| HMRYFDDEELNNKFLEFLSMRKKIRKPVRTDRALKALLKKLHELSGGDVGLMKQIIDQSLDKEWLGLFEL | -0.889 |
| HMRYNPETTAGRRGLIIKMLDEYGQVNVNELSRYFNVSEVTVRNDLAYLERKNLLIRARGGAIKTE | -1.91 |
| HMRYWVKSETDFLIENRGKYSYQEFADMLGRSYAVVYDKMHQLKIDYTKEELEIFDEKHKAQMREKQQR | -1.96 |
| HMSAAPVGPWALSEFLDAVEKDSVERVTFDDAGKALVAVDADGGRHRVEILPSEGPEILAALRKHSVQFA | 0.181 |
| HMSADEVSQQLTSEQTKSKSYQALLQAYAAYQQKSFDDAALELQNVQQDVLSDSQKTIYNTISQAVNS | 0.26 |
| HMSADISIGYNIPKGSVTVSAGGRTLQEGIDYDINYDLGTIKITNQAILNAGLPVQVNFENNAS | 0.849 |
| HMSADLVYLRKRLQDAIAQLPENMRTAYTLFQIANRSIREISELTGASESLVKVRIHRAKGKLQKQLEDLK | -1.43 |
| HMSAEDYLERIHELIESKGTAHVADIAQSLGVGKPSVTSMVQKLADEGYLNYEKYRSLTLTDSGRSIA | 0.165 |
| HMSAEDYMEMIYRLSQENGFTRVNDLASALNVQPPSVTRMIQKLAELNLIKYEKYGVIMLQPYGIEVGRSL | -2.65 |
| HMSAEGPALADWVVRDAHSIGAKITNSVAQLLIDRVGHNQQLLHNELQKLALVQTDISAELVKTMSHY | -0.643 |
| HMSAETRSWTDAQGNQTQAVLRGFDGGDVLLQNAAGKTLRVPVKNLSEDDQRYVVLNISTLID | -0.0549 |
| HMSAITLDQARAIALDHAGISEGDATFVKEQTGTSSYEIEFYSGSNEYDYEIDKATGAILNVDR | 0.22 |
| HMSALAEELIKKNQAMILTIKPRDTIWGIANRFQSPPSEKFINQIIELNQVDPYRLRIGQDLLIPLN | -0.984 |
| HMSALTDQQQRVLELVASGLVYKEVAAALSISEPTVKYHMGNILTRLHVKNRAQAIAAARQQGLL | -1.58 |
| HMSAMKYTSEVFQRLSRGQFISSNSIDAETRAIYSDIEENQQEYEDYFSKIDFLLSSGDGFYYFSRK | -2.38 |
| HMSAMSPTEVGERLRLAREAVRMTQKQAADAISVARTTLVAIEQGQRRVRIDELQQLAKTYGVSVNAILR | -2.27 |
| HMSAPAKKPKIKVDLSKVHAGTIVRHKGYGLGQVKGIDGAIIVVTFDGVDKKFQFPGGFENGFLFLTED | -1.48 |
| HMSAPLKELGNDPESGKPIVVKDGRFGAYVTDGETNATLRKTDAVESLTPERAAELLAEKRAKG | 0.493 |
| HMSAPTAFSERELELLAGMRRGASNKAMAEQLFISVNTVKYHRANLMRKLGARDRNEALEVAARLG | 0.404 |
| HMSAQDLIVKTDATQVEARVLEISPEQIRYKRFSNPDGPTYVLPVDAVDYIRYANGETDSFR | 0.076 |
| HMSASAIYVRPKDVKEPEEVADYLSGVLELDREKLYKKITDKSQWIALIERKVDNDIAFDIRNKKFKGIEI | -0.301 |
| HMSASIAEGTVIMLENTTNIRSGMSEDSSKVGTAYAGEKVTVVMSYAEGWTKVKWNGETGYIKTALLQL | -0.607 |
| HMSASNSIDFANRMIYNKNQVAVFNFGKHMGRPVLEVLKSDPSYYDWMMKGDFPMDTKRKLTEIKLQGF | -0.793 |
| HMSATPQRMTIIDALDSSGKNLSAYELLDLLNDKGQLFNISTIYRVLDFWIEMGIVHKINSSNTYL | 0.15 |
| HMSATQDAAIAVRIRDILSELDGYEDVTVTVTSGIVTMRGTTLDSEKIARLNDLTGRVEGVVAIENSVTET | -0.207 |
| HMSAVIGTATVTTSSGSLNLRESASLYSRVIRTIPRGATVDVLSRDTSWSRVRYAGSEGYVLNQYLTFQT | -2.1 |

| Sequence | soluble fraction (log2) |
| --- | --- |
| HMSDAGMNQIGDMFRAPDLMAKLAMNPATREYVSQPDFLAMMEEVKRNPSALNNHLRDPRMMNVLSVAM | -0.271 |
| HMSDAPLLSIRSLAVAFDGTRVVDGVSFDVARGEVVALVGESGSGKTVTGLSLLDLVPPPGRRVGGEV | 0.278 |
| HMSDDAVVRMRVPEDALGLSLRETDFRQRFGVYVLAIETRDGKLLAPPDPQRPLGKDDVLVVIQKR | -0.847 |
| HMSDDLLTGLDAYSRGDWTTATASFERVLTTADPNNRTEALYWLVMSETSAQNYQRALNYANTFL | -0.707 |
| HMSDDSTIVELLASSLRRDIAFGTLLPDQKLKLNELRTRYGGSIHSMRETLRILSAEGLVEATAQRGFRVT | 0.0731 |
| HMSDEIQLQFIQISIFKDHPWADMQIKDMNIIPDLLIVMILRDGERIIPNGNTRIMPGDMVIITAMSANT | -2.54 |
| HMSDESALIAAIEKAIAAQPETAEKVRNGHLPAAGALIGSVMKETKGQADAARVRELLLGLLGQ | 0.441 |
| HMSDESRAEIVSSAKRLFQQYGYKKTTVSDIAKAMGKVKSAIYYYFPDKESLLRAVIDEEVG | 0.0318 |
| HMSDFEASDPALLREGMRVQHLNFGKGTVITIEGAGANKKASVAFDGVGTKQLMLRFARLKIIYE | -2.59 |
| HMSDFKDIILKLRNEQGFTQEKLADVLGTSKSTVGMWEMGVRFPSKELYEAIADYFNVDIDYLYGRTDIR | -0.83 |
| HMSDGYETLVNMAKPFLNNSKQITENDITDAVNTVSVMLKKRYDMTDEDIRKAVSELLHFYA | -0.305 |
| HMSDIDHIAGRRIRQARLNAGMTLETLASQAGISKALLSKIENSKVSSPLATFSKISKVLGVPLSDLLKE | -0.748 |
| HMSDILALMPGTIKQILVAPGDSVKRGQTVIIMESMKMELTIAAHRDGVVKRIPVEQGGQVEKGMRLLELE | -1.86 |
| HMSDIPEGYMSRVQLGDEWGIHLATFDKAVIAVKEKLGTVVFIDKSNNTTAGYSPEQQTIIYDWLAEN | -2.22 |
| HMSDKNVYGKYKNVFLSDEEFSELKQFYPNDWSDRIETLSEGIELKGYKYKNYLLAIKKWAEYEGQKAD | -0.47 |
| HMSDKPIFIDTAGIAALSAIGFSKYQATIIFNYIKKGGAIYTVKDLAKIYSIDQKTIDLTQSKIIFS | 0.365 |
| HMSDKPRYYINGNTLFISDKSVKKVLFSDLSGRSILHTTETAINIATFRGAHILTVIYTDGSTKSEVIF | -1.47 |
| HMSDLLYAHPTEKGFQLVNVTQKVVMVILKTAAPNVYTVKGKNAIVFKEGNSWFYSENHNKKLLNIK | -3.18 |
| HMSDLQTGDINQDGTVDEKDLSLLHSYNLELIKTISNAADLNEDGVINGLDEAYLKRLFLQNSDP | -0.122 |
| HMSDLTEVIVKFSGDIQPIRQDLDAQVEILLKGYAIITLSPNKIGRLYSYPQIESIEIPKNLYI | -2.73 |
| HMSDPASLQRRLMSDPELTARILDSPFTRSLLDDPNLLRQMVNANPQLRRAMDANPQLRHAL | -0.267 |
| HMSDPEAFIRQTVAAAEPEGIALSVLGKRVRGKFRTFKLRDLGYAQFRPYLGDLDGIKVEQRDGQSYARLD | -1.03 |
| HMSDPSRKADFIAALSSLGGSAGNGKLREQLGWDEPTYDAVKQTLLDEGAITNGRGRGGSVALAG | 0.976 |
| HMSDPTDRLVLEAALKALGEEERQVVLLHAASGLKHREIARDLGLPLSTVLSRYSRALKKLQRYLTEEGVH | -1.2 |
